Measured values: patent US20260258388A1 (REGENTS OF THE UNIVERSITY OF MICHIGAN, published 2026)

Legend:
[1] = molecular target: Ly76 (Ter119 antigen) on mouse red blood cells (mouse); assay: binding assay using mouse RBC ghosts
[2] = molecular target: Ly76 (Ter119 antigen) on mouse red blood cells (mouse); assay: binding assay on mouse RBCs
[3] = molecular target: Ly76 (Ter119 antigen) on mouse red blood cells (mouse); assay: 125I-labelled protein injected in mice; radioactivity in RBC pellet vs plasma 1 hour after injection
[4] = molecular target: Ly76 (Ter119 antigen) on mouse red blood cells (mouse); assay: cell-based or functional assay
human FcγRIIA [5] = molecular target: T1, human FcγRIIA (human, UniProt P12318 34-317); assay: flow cytometry, THP-1 cells
T1 construct: whole, on cells; also called hFcγRIIA; platelet FcγRIIA
T1 sequence (looked up): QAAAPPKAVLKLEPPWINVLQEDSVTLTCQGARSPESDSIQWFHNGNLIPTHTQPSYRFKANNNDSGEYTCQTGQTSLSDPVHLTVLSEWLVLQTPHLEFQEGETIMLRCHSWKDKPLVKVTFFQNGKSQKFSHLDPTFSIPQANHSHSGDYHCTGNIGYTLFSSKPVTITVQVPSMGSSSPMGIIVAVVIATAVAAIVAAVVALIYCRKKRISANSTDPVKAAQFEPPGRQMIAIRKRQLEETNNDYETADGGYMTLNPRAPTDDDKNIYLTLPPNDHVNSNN

human FcγRIIA [6] = molecular target: T1, human FcγRIIA; assay: flow cytometry, human platelets
human FcγRIIA [7] = molecular target: T1, human FcγRIIA; assay: flow cytometry, washed platelets of transgenic mice expressing human FcγRIIA
human FcγRIIA [8] = molecular target: T1, human FcγRIIA; assay: flow cytometry, human platelets, His-tagged protein detected with Alexa 488 anti-His antibody

Ter119 scFv
Kd [1]: 30 nM

Ter119 scFv-IdeS fusion protein
Kd [1]: 26 nM | Kd [2]: 25 nM | percent bound to RBCs in blood [3]: > 98% | inhibition of agglutination of mouse RBCs loaded with Ter119 mAb [4]: 1.25 nM

B1: scIV.3-LPETGG-FAM (scFv)
scFv: QVQLVQSGAEVKKPGASVKVSCKASGYTFTNYGMNWVRQAPGQRLEWMGWLNTYTGESWYPDDFKGRVTITRDTSASTAYMELSSLRSEDTAVYYCARGDYGYDDPLDYWGQGTLVTVSSGAGGSGGGGSGGGGSGGGGSDIVMTQSPLSLPVTPGEPASISCRSSKSLLHTNQNTYLHWFLQKPGQSPQLLIYRMSVLASGVPDRFSGSGSGTDFTLKISRVEAEDVGVYYCMQHLEYPLTFGQGTKLEIKR
modifications: FAM-containing peptide attached site-specifically to the C-terminal sortag (LPET) by sortase
notes: Single chain variable fragment of monoclonal antibody IV.3, C-terminally modified with a FAM peptide by sortase; also called scIV.3-FAM; FAM-conjugated scIV.3; not shown: short semi-rigid linker, sortag LPET and the FAM-containing peptide joined by sortase
Kd (human FcγRIIA [5]): 11 nM | Kd (human FcγRIIA [6]): 1 nM | Kd (human FcγRIIA [7]): 0.27 nM

B2: scIV.3-IdeS (scFv)
chain: QVQLVQSGAEVKKPGASVKVSCKASGYTFTNYGMNWVRQAPGQRLEWMGWLNTYTGESWYPDDFKGRVTITRDTSASTAYMELSSLRSEDTAVYYCARGDYGYDDPLDYWGQGTLVTVSSGAGGSGGGGSGGGGSGGGGSDIVMTQSPLSLPVTPGEPASISCRSSKSLLHTNQNTYLHWFLQKPGQSPQLLIYRMSVLASGVPDRFSGSGSGTDFTLKISRVEAEDVGVYYCMQHLEYPLTFGQGTKLEIKRGSSSGLPETGGGSSDSFSANQEIRYSEVTPYHVTSVWTKGVTPPANFTQGEDVFHAPYVANQGWYDITKTFNGKDDLLCGAATAGNMLHWWFDQNKDQIKRYLEEHPEKQKINFNGEQMFDVKEAIDTKNHQLDSKLFEYFKEKAFPYLSTKHLGVFPDHVIDMFINGYRLSLTNHGPTPVKEGSKDPRGGIFDAVFTRGDQSKLLTSRHDFKEKNLKEISDLIKKELTEGKALGLSHTYANVRINHVINLWGADFDSNGNLKAIYVTDSDSNASIGMKKYFVGVNSAGKVAISAKEIKEDNIGAQVLGLFTLSTGQDSWNQTNHHHHHH
notes: also called IV.3-IdeS conjugate; His-tagged scIV.3-IdeS
Kd (human FcγRIIA [8]): 1.3 nM

B3: scIV.3 (single-chain variable fragment of IV.3, scIV.3-LPETGG) (scFv)
scFv: QVQLVQSGAEVKKPGASVKVSCKASGYTFTNYGMNWVRQAPGQRLEWMGWLNTYTGESWYPDDFKGRVTITRDTSASTAYMELSSLRSEDTAVYYCARGDYGYDDPLDYWGQGTLVTVSSGAGGSGGGGSGGGGSGGGGSDIVMTQSPLSLPVTPGEPASISCRSSKSLLHTNQNTYLHWFLQKPGQSPQLLIYRMSVLASGVPDRFSGSGSGTDFTLKISRVEAEDVGVYYCMQHLEYPLTFGQGTKLEIKRGSSSGLPETGGGHHHHHH
notes: also called His-tagged scIV.3; IV.3 scFv
Kd (human FcγRIIA [8]): 0.9 nM
